B1: APRE M6 (32P) (dsDNA)
DNA 1: GATCCACCACAGTTGTGATTTCACAACCTGACCA
DNA 2: TGGTCAGGTTGTGAAATCACAACTGTGGTGGATC

Assays:
[1] = system: NF-IL6 full length (24-345); experiment: EMSA; settings: CITED Brasier and Kumar 1994; indistinguishable from TCD WT; cited from earlier work
[2] = target: NF-IL6 TCD WT (tryptic core domain, aa 266-345) (UniProt P17676); experiment: EMSA; settings: CITED Brasier and Kumar 1994; cited from earlier work
NF-IL6 TCD V267A = NF-IL6 TCD V267A (UniProt P17676 SEQ:2-81, V267A); experiment: EMSA; binding specificity indistinguishable from the other TCD peptides; settings: tags: untagged, initiator Met removed; chain copies: 2 inferred; label: 32P fill-in; BamHI/BglII overhangs
Sequence of NF-IL6 TCD V267A (P17676 other isoform, or with tags, fused parts or gaps V267A | V267A V267A): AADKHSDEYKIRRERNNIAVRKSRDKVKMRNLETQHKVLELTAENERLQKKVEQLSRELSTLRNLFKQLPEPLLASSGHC

NF-IL6 TCD S271A = NF-IL6 TCD S271A (UniProt P17676 SEQ:2-81, S271A); experiment: as above; settings: tags: untagged, initiator Met removed; chain copies: 2 inferred; label: 32P fill-in; BamHI/BglII overhangs
Sequence of NF-IL6 TCD S271A (P17676 other isoform, or with tags, fused parts or gaps S271A | S271A S271A): as the sequence (P17676 other isoform, or with tags, fused parts or gaps V267A | V267A V267A) above, with A2V, S6A counted along it

Sequence of NF-IL6 TCD WT (tryptic core domain, aa 266-345) (P17676 other isoform, or with tags, fused parts or gaps): as the sequence (P17676 other isoform, or with tags, fused parts or gaps V267A | V267A V267A) above, with A2V counted along it

| Molecule | Kd [1] [nM] | Kd [2] [nM] | binding result (NF-IL6 TCD V267A) | binding result (NF-IL6 TCD S271A) |
| --- | --- | --- | --- | --- |
| APRE DNA (site used in cited work) | 36 | 36 |  |  |
| B1 |  |  | binds | binds |

Source: patent US5804445, “High affinity mutants of nuclear factor-interleukin 6 and methods of use therefor” (Board of Regents, The University of Texas System)
